{
  "source": "patent US20190218283A1",
  "about": "(published 2019)",
  "target": "murine pro-myostatin (proGDF8) (mouse, UniProt O08689 25-376)",
  "experiment": "cell-based or functional assay",
  "data": [
    {"binder": "Ab6 (Ab5 IgG4 containing the corrected germline residues) (antibody, V domains shown) VH: QVQLVESGGGVVQPGRSLRLSCAASGFAFSSYGMHWVRQAPGKGLEWVAVISYDGNNKYYADSVKGRFTISRDNSKNTLYLQMNSLRAEDTAVYYCARDLLVRFLEWSHKYGMDVWGQGTTVTVSS VL: not shown", "values": [
      {"measurement": "Activity Assay - 293T cells EC50", "result": 0.307, "unit": "nM"}
    ]}
  ]
}
